# Assay results published in PMC7363131.
# Target: S. venezuelae WhiD (SvWhiD), N-terminally His6-tagged, full length (S. venezuelae)
# Test: native MS; nondenaturing ESI-MS, 250 mM ammonium acetate, pH 7.2; SvWhiD alone (10 μM) or a 2:1 mixture of σ^HrdB4 and SvWhiD
substance,measurement,value
"S. venezuelae WhiD (SvWhiD), N-terminally His6-tagged, full length (natural protein)",stoichiometry N,2
